Experimental data as given in paper PMC3823998, “Structural and Functional Characterization of the Redβ Recombinase from Bacteriophage λ” (PLoS ONE, 2013).

Target: T1, Redβ K172A (Bacteriophage λ (Enterobacteria phage λ), UniProt P03698 1-261, K172A)
T1 sequence: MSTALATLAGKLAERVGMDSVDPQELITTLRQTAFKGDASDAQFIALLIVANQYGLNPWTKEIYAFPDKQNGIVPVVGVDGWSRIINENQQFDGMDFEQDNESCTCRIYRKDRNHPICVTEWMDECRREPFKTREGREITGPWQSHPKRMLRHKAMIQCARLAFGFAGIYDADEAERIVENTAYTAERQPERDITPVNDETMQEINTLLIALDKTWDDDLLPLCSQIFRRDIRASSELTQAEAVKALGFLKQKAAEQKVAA
Assay: EMSA; glutaraldehyde-fixed; ssDNA EMSA: 10 nM DNA, 50 mM potassium phosphate pH 6.0, 5 mM EDTA, 5% glycerol, 0.1 mg/ml BSA, 37°C, 40 min, then 0.1% glutaraldehyde; second-strand EMSA: 5 nM each strand, 20 mM Tris-HCl pH 7.5, 5 mM MgCl2, 1 mM DTT, 0.1 mg/ml BSA, 37°C
Details: protein: recombinant; tags: His6 removed; N-terminal GSH left; label: 5' Cy3

TGCGGATGGCTTAGAGCTTAATTGCTGAATCTGGTGCTGTAGCTCAACAT (ssDNA) [50-minus ssDNA] was tested, and the binding signal was 76 % of WT binding at 3 µM protein.
